The text below walks through data of PMC13078783 (2026).

For one experiment, the target named is KLC2 TPR domain. The experiment can be described thus: FP.
The next experiment addresses KLC1 TPR domain. Put plainly: FP.

KLC1 TPR domain, sequence (chain, as listed by the source): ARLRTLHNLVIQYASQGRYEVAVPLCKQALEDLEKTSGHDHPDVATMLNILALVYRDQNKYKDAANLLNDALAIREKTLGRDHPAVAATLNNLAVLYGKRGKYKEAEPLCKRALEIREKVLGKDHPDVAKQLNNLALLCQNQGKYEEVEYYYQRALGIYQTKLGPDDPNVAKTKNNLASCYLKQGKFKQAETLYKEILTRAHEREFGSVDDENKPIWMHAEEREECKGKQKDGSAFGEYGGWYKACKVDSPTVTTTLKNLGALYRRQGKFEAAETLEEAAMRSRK
KLC2 TPR domain, sequence (chain, as listed by the source): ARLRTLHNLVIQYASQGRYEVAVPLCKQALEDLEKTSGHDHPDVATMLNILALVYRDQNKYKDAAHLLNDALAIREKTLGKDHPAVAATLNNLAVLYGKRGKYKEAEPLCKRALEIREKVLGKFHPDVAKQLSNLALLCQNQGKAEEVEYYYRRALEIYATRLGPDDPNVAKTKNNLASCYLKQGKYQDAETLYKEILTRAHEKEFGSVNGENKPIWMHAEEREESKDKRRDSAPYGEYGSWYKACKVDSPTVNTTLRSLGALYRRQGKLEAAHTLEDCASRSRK

With {TAMRA}-STNLEWDDSAI-NH2 [SKIP W-acidic motif peptide], the Kd in the experiment with KLC2 TPR domain was found to be 750 nM; with KLC1 TPR domain it was 830 nM.

What is called Kd is the concentration at which binding is half-saturated.
